In patent US20260347476 (published 2026):

T1: IL-15Rbetagamma heterodimer (human, UniProt P14784)
T1 chain 1: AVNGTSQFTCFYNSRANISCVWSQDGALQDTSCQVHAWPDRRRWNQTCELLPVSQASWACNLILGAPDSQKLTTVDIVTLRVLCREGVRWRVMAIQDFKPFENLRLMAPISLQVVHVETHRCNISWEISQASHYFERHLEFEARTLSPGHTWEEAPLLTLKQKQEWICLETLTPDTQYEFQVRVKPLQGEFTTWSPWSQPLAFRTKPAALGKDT
T1 chain 2: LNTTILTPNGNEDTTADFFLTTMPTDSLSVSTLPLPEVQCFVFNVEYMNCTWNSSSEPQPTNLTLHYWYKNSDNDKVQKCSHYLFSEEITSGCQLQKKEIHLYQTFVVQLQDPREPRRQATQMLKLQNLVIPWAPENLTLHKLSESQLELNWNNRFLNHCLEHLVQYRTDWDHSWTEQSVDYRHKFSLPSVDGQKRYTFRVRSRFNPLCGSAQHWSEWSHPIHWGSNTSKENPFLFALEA

B1: RV30 IL-15 arm (antibody, V domains shown)
VH: QVQLVQSGAEVKKPGASVKVSCKASGYSFSSFGISWVRQAPGQGLEWLGWISAFNGYTKYAQKFQDRVTMTTDTSTSTAYMELRSLRSDDTAVYYCARDPAAWPLQQSLAWFDPWGQGTMVTVSS
VL: QSVLTQPPSASGTPGQRVTISCSGSTSNLKRNYVYWYQQLPGTAPKLLIYRDRRRPSGVPDRFSGSKSGTSASLAISGLRSEDEADYYCAWYDRELSEWVFGGGTKLTVL
B2: RV37 IL-15 arm (antibody, V domains shown)
VH: B1 VH
VL: B1 VL
B3: RV32 IL-15 arm (antibody, V domains shown)
VH: B1 VH
VL: B1 VL
B4: RV29 IL-15 arm (antibody, V domains shown)
VH: B1 VH
VL: B1 VL
B5: RV36 IL-15 arm (antibody, V domains shown)
VH: B1 VH
VL: B1 VL
B6: RV31 IL-15 arm (antibody, V domains shown)
VH: B1 VH
VL: B1 VL
B7: RV36:IL-15 complex (antibody)
chain 1: B1 VH
chain 2: B1 VL
chain 3: not shown
B8: RV37:IL-15 complex (antibody)
chain 1: B1 VH
chain 2: B1 VL
chain 3: not shown
B9: RV15:IL-15 complex (antibody)
chain 1: B1 VH
chain 2: B1 VL
chain 3: not shown
B10: RV26:IL-15 complex (antibody)
chain 1: B1 VH
chain 2: B1 VL
chain 3: not shown
B11: RV20:IL-15 complex (antibody)
chain 1: B1 VH
chain 2: B1 VL
chain 3: not shown
B12: RV31:IL-15 complex (antibody)
chain 1: B1 VH
chain 2: B1 VL
chain 3: not shown
B13: RV18:IL-15 complex (antibody)
chain 1: B1 VH
chain 2: B1 VL
chain 3: not shown
B14: RV29:IL-15 complex (antibody)
chain 1: B1 VH
chain 2: B1 VL
chain 3: not shown
B15: RV30:IL-15 complex (antibody)
chain 1: B1 VH
chain 2: B1 VL
chain 3: not shown
B16: RV32:IL-15 complex (antibody)
chain 1: B1 VH
chain 2: B1 VL
chain 3: not shown
B17: RV20 PD-1 arm (antibody, V domains shown)
VH: QVQLVQSGVEVKKPGASVKVSCKASGYTFTNYYMYWVRQAPGQCLEWMGGINPSNGGTNFNEKFKNRVTLTTDSSTTTAYMELKSLQFDDTAVYYCARRDYRFDMGFDYWGQGTTVTVSS
VL: EIVLTQSPATLSLSPGERATLSCRASKGVSTSGYSYLHWYQQKPGQAPRLLIYLASYLESGVPARFSGSGSGTDFTLTISSLEPEDFAVYYCQHSRDLPLTFGCGTKVEIK
B18: RV26 PD-1 arm (antibody, V domains shown)
VH: B17 VH
VL: B17 VL
B19: RV19 PD-1 arm (antibody, V domains shown)
VH: B17 VH
VL: EIVLTQSPATLSLSPGERATLSCRASKGVSTSGYSYLHWYQQKPGQAPRLLIYLASYLESGVPARFSGSGSGTDFTLTISSLEPEDFAVYYCQHSRDLPLTFGCGTKVEI
B20: RV1:IL-15 complex (antibody)
chain 1: B1 VH
chain 2: B1 VL
chain 3: not shown
B21: RV17:IL-15 complex (antibody)
chain 1: B1 VH
chain 2: B1 VL
chain 3: not shown
B22: RV19:IL-15 complex (antibody)
chain 1: B1 VH
chain 2: B1 VL
chain 3: not shown
B23: RV17 IL-15 arm (antibody, V domains shown)
VH: B1 VH
VL: B1 VL
B24: RV18 IL-15 arm (antibody, V domains shown)
VH: B1 VH
VL: B1 VL
B25: RV26 IL-15 arm (antibody, V domains shown)
VH: B1 VH
VL: B1 VL
B26: RV1 (anti-IL-15 mAb DISC0280) (antibody, V domains shown)
VH: B1 VH
VL: B1 VL
B27: RV15 IL-15 arm (antibody, V domains shown)
VH: B1 VH
VL: B1 VL
B28: RV19 IL-15 arm (antibody, V domains shown)
VH: B1 VH
VL: B1 VL
B29: RV20 IL-15 arm (antibody, V domains shown)
VH: B1 VH
VL: B1 VL

What follows are binders tested against T2, IL-15 (human, UniProt P40933) (assay: SPR, PD1 capture).
T2 sequence (P40933 49-162): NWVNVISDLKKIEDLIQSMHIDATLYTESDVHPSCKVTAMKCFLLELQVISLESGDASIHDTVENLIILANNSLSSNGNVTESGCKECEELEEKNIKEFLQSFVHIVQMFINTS

Kd | Binder
0.452 nM | B1
0.227 nM | B2
0.352 nM | B3
0.339 nM | B4
0.111 nM | B5
0.717 nM | B6

Biological target: T1, IL-15Rbetagamma heterodimer
Assay: SPR, PD1 capture

Kd | Binder
1.07 nM | B7
0.693 nM | B8
0.722 nM | B9
1.53 nM | B10
0.667 nM | B11
0.981 nM | B12
0.239 nM | B13
0.72 nM | B14
0.828 nM | B15
1.45 nM | B16

Each binder was assayed against T3, PD-1 (human, UniProt Q15116) (assay: SPR, PD1 surface).
T3 sequence (Q15116 25-167): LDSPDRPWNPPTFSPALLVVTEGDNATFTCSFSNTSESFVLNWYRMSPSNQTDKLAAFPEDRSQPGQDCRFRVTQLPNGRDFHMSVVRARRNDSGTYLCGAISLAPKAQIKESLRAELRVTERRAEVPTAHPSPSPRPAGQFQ

Kd | Binder
17.2 nM | B17
2.19 nM | B18

Each binder was assayed against T3, PD-1 (assay: SPR, protein A capture).

binding result | Binder
no binding | B19

Biological target: T3, PD-1
Assay: SPR, protein A capture
Remark: another data set of the same source

Kd | Binder
269 nM | B17

Biological target: T1, IL-15Rbetagamma heterodimer
Assay: SPR, anti-human Fc capture

Kd | Binder
0.771 nM | B7
0.986 nM | B8
0.804 nM | B9
1.36 nM | B10
0.705 nM | B20
0.99 nM | B21
0.852 nM | B11
0.979 nM | B12
1.02 nM | B13
1.17 nM | B22
0.732 nM | B14
0.849 nM | B15
0.742 nM | B16

What follows are binders tested against T2, IL-15 (assay: SPR, anti-human Fc capture).

Kd | Binder
0.077 nM | B1
0.0664 nM | B2
0.106 nM | B23
0.108 nM | B3
0.0769 nM | B24
0.114 nM | B4
0.396 nM | B25
0.349 nM | B26
0.108 nM | B27
0.116 nM | B5
0.0847 nM | B28
0.18 nM | B6
0.0519 nM | B29

Biological target: T1, IL-15Rbetagamma heterodimer
Assay: SPR, PD1 capture, additional production

Kd | Binder
0.726 nM | B11
0.665 nM | B15

Each binder was assayed against T2, IL-15 (assay: SPR, PD1 capture, additional production).

Kd | Binder
0.85 nM | B1
0.169 nM | B29

Biological target: T1, IL-15Rbetagamma heterodimer
Assay: SPR, anti-human Fc capture, IL-15 and PD1 bound

Kd | Binder
0.848 nM | B8
0.706 nM | B15

Each binder was assayed against T3, PD-1 (assay: SPR, anti-human Fc capture, additional production).

Kd | Binder
3.99 nM | B17

The binders below were run against T2, IL-15 (assay: SPR, anti-human Fc capture, additional production).

Kd | Binder
0.0664 nM | B1
0.0531 nM | B29
